For this test, the target named is D. melanogaster cellular repressor of E1A-stimulated genes (dCREG), residues 24-212, produced in E. coli from pFO4/dCREG (D. melanogaster). Put plainly: SEC; Superdex 75 HR 10/30, 50 mM sodium phosphate buffer pH 7.0, 150 mM NaCl, flow 0.5 ml/min, absorbance at 280 nm. (Size exclusion chromatography separates by hydrodynamic size, large species first.)

These results are taken from PMC4331662.

One may read the stoichiometry N as the number of molecules, sites or subunits per partner or assembly. “D. melanogaster cellular repressor of E1A-stimulated genes (dCREG), residues 24-212, produced in E. coli from pFO4/dCREG (natural protein)” displayed a stoichiometry N of 2.
